Substitutions are numbered along the chain they refer to. Read-outs that look alike come from different tables or passages of the source.
B1: CODV-Fab hz20G6xhz7G3 antibody-like binding protein (bispecific antibody)
light: DIVMTQSPDSLAVSLGERATINCESSQSLLNSGNQKNYLTWYQQKPGQPPKPLIYWASTRESGVPDRFSGSGSGTDFTLTISSLQAEDVAVYYCQNDYSYPYTFGQGTKLEIKGGSGSSGSGGDIVMTQTPLSLSVTPGQPASISCKSSQSLVHNNANTYLSWYLQKPGQSPQSLIYKVSNRFSGVPDRFSGSGSGTDFTLKISRVEAEDVGVYYCGQGTQYPFTFGSGTKVEIKGGSGSSGSGGRTVAAPSVFIFPPSDEQLKSGTASVVCLLNNFYPREAKVQWKVDNALQSGNSQESVTEQDSKDSTYSLSSTLTLSKADYEKHKVYACEVTHQGLSSPVTKSFNRGEC
heavy: QVQLVESGGGVVQPGRSLRLSCAASGFTFTKAWMHWVRQAPGKQLEWVAQIKDKSNSYATYYADSVKGRFTISRDDSKNTLYLQMNSLRAEDTAVYYCRGVYYALSPFDYWGQGTLVTVSSEVQLVQSGAEVKKPGESLKISCKGSGYSFTDYYMKWARQMPGKGLEWMGDIIPSSGATFYNQKFKGQVTISADKSISTTYLQWSSLKASDTAMYYCARSHLLRASWFAYWGQGTMVTVSSASTKGPSVFPLAPSSKSTSGGTAALGCLVKDYFPEPVTVSWNSGALTSGVHTFPAVLQSSGLYSLSSVVTVPSSSLGTQTYICNVNHKPSNTKVDKKVEPKSCDKTHTHHHHHH
notes: also called hz20G6xhz7G3 CODV-Fab
B2: CODV-Fab-OL1 hz20G6xhz7G3 antibody-like binding protein (bispecific antibody, human IgG1, kappa, L234A L235A)
light: B1 light
heavy: not shown
chain: GSDKTHTCPPCPAPEAAGGPSVFLFPPKPKDTLMISRTPEVTCVVVDVSHEDPEVKFNWYVDGVEVHNAKTKPREEQYNSTYRVVSVLTVLHQDWLNGKEYKCKVSNKALPAPIEKTISKAKGQPREPQVCTLPPSRDELTKNQVSLSCAVKGFYPSDIAVEWESNGQPENNYKTTPPVLDSDGSFFLVSKLTVDKSRWQQGNVFSCSVMHEALHNHYTQKSLSLSPG
notes: formula I chain, formula III chain and Fc stump (Fc3); also called hz20G6xhz7G3 CODV-Fab-OL1; hz20G6xhz7G3 CODV-OL1
B3: CODV-Fab hz20G6x7G3 antibody-like binding protein (bispecific antibody)
light: DFVMTQSPSSLTVTAGEKVTMSCKSSQSLLNSGNQKNYLTWYLQKPGQPPKLLIYWASTRESGVPDRFTGSGSGTDFTLTISSVQAEDLAVYYCQNDYSYPYTFGGGTKLEIKGQPKAAPDIVMTQTPLSLSVTPGQPASISCKSSQSLVHNNGNTYLSWYLQKPGQSPQSLIYKVSNRFSGVPDRFSGSGSGTDFTLKISRVEAEDVGVYYCGQGTQYPFTFGSGTKVEIKTKGPSRTVAAPSVFIFPPSDEQLKSGTASVVCLLNNFYPREAKVQWKVDNALQSGNSQESVTEQDSKDSTYSLSSTLTLSKADYEKHKVYACEVTHQGLSSPVTKSFNRGEC
heavy: QVQLVESGGGVVQPGRSLRLSCAASGFTFTKAWMHWVRQAPGKQLEWVAQIKDKSNSYATYYADSVKGRFTISRDDSKNTLYLQMNSLRAEDTAVYYCRGVYYALSPFDYWGQGTLVTVSSSEVQLQQSGPELVKPGASVKMSCKASGYTFTDYYMKWVKQSHGKSLEWIGDIIPSNGATFYNQKFKGKATLTVDRSSSTAYMHLNSLTSEDSAVYYCTRSHLLRASWFAYWGQGTLVTVSARTASTKGPSVFPLAPSSKSTSGGTAALGCLVKDYFPEPVTVSWNSGALTSGVHTFPAVLQSSGLYSLSSVVTVPSSSLGTQTYICNVNHKPSNTKVDKKVEPKSCDKTHTHHHHHH
notes: also called hz20G6 × 7G3 CODV-Fab
B4: CODV-Fab 7G3xhz4B4 antibody-like binding protein (bispecific antibody)
light: DVVMTQTPVSLSVSVGGRVSISCRSSQSLVHDNGNTYLSWSLQKPGKSPKVLIYKVSNRFSGVSSRFTGSGSGTDFTLKISSVQPDDLGVYYCGQGTQYPFTFGSGTKLEIKGQPKAAPDFVMTQSPSSLTVTAGEKVTMSCKSSQSLLNSGNQKNYLTWYLQKPGQPPKLLIYWASTRESGVPDRFTGSGSGTDFTLTISSVQAEDLAVYYCQNDYSYPYTFGGGTKLEIKTKGPSRTVAAPSVFIFPPSDEQLKSGTASVVCLLNNFYPREAKVQWKVDNALQSGNSQESVTEQDSKDSTYSLSSTLTLSKADYEKHKVYACEVTHQGLSSPVTKSFNRGEC
heavy: EVQLQQSGPELVKPGASVKMSCKASGYTFTDYYMKWVKQSHGKSLEWIGDIIPSNGATFYNQKFKGKATLTVDRSSSTAYMHLNSLTSEDSAVYYCTRSHLLRASWFAYWGQGTLVTVSASQVQLVETGGGLVKPGQSLKLTCATSGFTFSNAWMHWVRQSPEKGLEWVAQIKARSNNYATYYAESVKGRFTISRDDSKSTIYLQMNSLTPEDTAIYYCRGTYYASKPFDYWGQGVMVTVSSRTASTKGPSVFPLAPSSKSTSGGTAALGCLVKDYFPEPVTVSWNSGALTSGVHTFPAVLQSSGLYSLSSVVTVPSSSLGTQTYICNVNHKPSNTKVDKKVEPKSCDKTHTHHHHHH
notes: also called 7G3 × hz4B4 CODV-Fab
B5: CODV-Fab 7G3x4B4 antibody-like binding protein (bispecific antibody)
light: B4 light with V15L, R18Q, K44R, K47Q, K50Q, V63T, S65D, S82R, Q84E
heavy: B4 heavy with Q122E, G131R, K134Q, Q137R, G165Q, T210K, P211E
notes: also called 7G3 × 4B4
B6: CODV-Fab 7G3x20G6 antibody-like binding protein (bispecific antibody)
light: DVVMTQTPVSLSVSLGGQVSISCRSSQSLVHNNGNTYLSWYLQKPGQSPQSLIYKVSNRFSGFSDRFSGSGSGTDFTLKISRVDPDDLGVYYCGQGTQYPFTFGSGTKLEIKGQPKAAPDFVMTQSPSSLTVTAGEKVTMSCKSSQSLLNSGNQKNYLTWYLQKPGQPPKLLIYWASTRESGVPDRFTGSGSGTDFTLTISSVQAEDLAVYYCQNDYSYPYTFGGGTKLEIKTKGPSRTVAAPSVFIFPPSDEQLKSGTASVVCLLNNFYPREAKVQWKVDNALQSGNSQESVTEQDSKDSTYSLSSTLTLSKADYEKHKVYACEVTHQGLSSPVTKSFNRGEC
heavy: EVQLQQSGPELVKPGASVKMSCKASGYTFTDYYMKWVKQSHGKSLEWIGDIIPSNGATFYNQKFKGKATLTVDRSSSTAYMHLNSLTSEDSAVYYCTRSHLLRASWFAYWGQGTLVTVSASEVQLVETGGSLVQPGKSLKLTCATSGFTFTKAWMHWVRQSPEKQLEWVAQIKDKSNSYATYYAESVKGRFTISRDDSKSTIYLQMNSLKEEDTAIYYCRGVYYALSPFDYWGQGVMVTVSSRTASTKGPSVFPLAPSSKSTSGGTAALGCLVKDYFPEPVTVSWNSGALTSGVHTFPAVLQSSGLYSLSSVVTVPSSSLGTQTYICNVNHKPSNTKVDKKVEPKSCDKTHTHHHHHH
notes: formula I and formula II chains; hinge and His-tag added C-terminally to formula II; also called 7G3 × 20G6

Key:
[1] = target: T1, human CD123 Strep-II tagged Fc-fusion protein (human); assay: SPR Biacore
T1 construct: also called human CD123-Fc; recombinant CD123

[2] = target: T2, human CD3ε/δ-Fc fusion protein (soluble recombinant CD3ε/δ complex) (human, UniProt P04234 22-105); assay: SPR Biacore
T2 construct: also called huCD3ε/δ; huCD3; not shown: hinge, CH2, CH3 of human IgG with tag

[3] = target: T3, human CD123 (IL3RA) on cells (human, UniProt P26951 19-378); assay: cell-based or functional assay
[4] = target: T4, human CD3 (TCR complex) on primary human T cells or Jurkat cells (human, UniProt P07766 23-207); assay: cell-based or functional assay
[5] = target: T4, human CD3 (TCR complex) on primary …; assay: cell-based or functional assay; remark: listed apart in the source
[6] = target: T1, human CD123 Strep-II tagged Fc-fusion …; assay: SPR Biacore; remark: listed apart in the source
[7] = target: T2, human CD3ε/δ-Fc fusion protein (soluble …); assay: SPR Biacore; remark: listed apart in the source
[8] = target: T3, human CD123 (IL3RA) on cells; assay: cell-based or functional assay; remark: listed apart in the source
[9] = target: T3, human CD123 (IL3RA) on cells; assay: cell-based or functional assay; remark: listed apart in the source
[10] = target: T2, human CD3ε/δ-Fc fusion protein (soluble …); assay: SPR Biacore, CODV-Fab
Protocol: (§1) Binding affinities of anti-CD3 binding Fabs or CODV-Fabs were measured by surface plasmon resonance (SPR) using a Biacore3000 instrument (GE Healthcare). Assay buffer was HBS-EP (BR-1001-88, GE Healthcare). Capture of CD3ε/δ-Fc fusion proteins was achieved using the human antibody capture kit (GE Healthcare). […] The CD3εδ-Fc fusions proteins were captured at 10 μl/min to approx. 70 RU to yield Rmax values of 30 RU. Binding kinetics with the anti-CD3 Fabs or CODV-Fabs was measured at 30 μl/min for 240 sec. and 600 sec. for association and dissociation phase, respectively. Twofold dilutions of Fabs from 3 to 400 nM in assay buffer were used. All Fab concentrations were run in duplicate together with duplicate buffer blanks for double referencing. Regeneration of the capture surface was performed with a 1 min injection of 3M MgCl2 solution at 30 μl/min. For data analysis the BIAevaluation software v.4.1 (GE Healthcare) was used. Data were fit globally using a 1:1 Langmuir model with mass transfer.

[11] = target: T2, human CD3ε/δ-Fc fusion protein (soluble …); assay: SPR Biacore, CODV-Fab on recombinant CD3ε/δ
Protocol: as §1

T1 sequence (chain, as listed by the source limits assumed): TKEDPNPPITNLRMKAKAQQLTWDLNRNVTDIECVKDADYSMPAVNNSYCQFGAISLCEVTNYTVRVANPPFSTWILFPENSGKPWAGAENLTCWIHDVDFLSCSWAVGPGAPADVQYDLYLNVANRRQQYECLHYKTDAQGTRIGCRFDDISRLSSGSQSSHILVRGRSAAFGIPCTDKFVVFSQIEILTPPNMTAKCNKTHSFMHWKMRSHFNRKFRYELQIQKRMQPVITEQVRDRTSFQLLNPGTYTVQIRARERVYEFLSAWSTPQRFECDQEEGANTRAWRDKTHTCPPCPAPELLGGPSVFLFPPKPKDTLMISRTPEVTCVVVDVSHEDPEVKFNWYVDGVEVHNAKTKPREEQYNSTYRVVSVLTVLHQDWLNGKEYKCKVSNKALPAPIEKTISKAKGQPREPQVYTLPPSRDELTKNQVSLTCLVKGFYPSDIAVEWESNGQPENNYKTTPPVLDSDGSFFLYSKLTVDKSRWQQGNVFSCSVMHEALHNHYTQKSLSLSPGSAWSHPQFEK
T4 sequence (P07766 23-207, one chain of several): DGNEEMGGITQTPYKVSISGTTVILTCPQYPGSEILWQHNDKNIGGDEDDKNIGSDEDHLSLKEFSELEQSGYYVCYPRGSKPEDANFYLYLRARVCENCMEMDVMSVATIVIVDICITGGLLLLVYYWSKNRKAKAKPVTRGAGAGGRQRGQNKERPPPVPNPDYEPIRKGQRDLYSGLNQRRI
T3 sequence (P26951 19-378): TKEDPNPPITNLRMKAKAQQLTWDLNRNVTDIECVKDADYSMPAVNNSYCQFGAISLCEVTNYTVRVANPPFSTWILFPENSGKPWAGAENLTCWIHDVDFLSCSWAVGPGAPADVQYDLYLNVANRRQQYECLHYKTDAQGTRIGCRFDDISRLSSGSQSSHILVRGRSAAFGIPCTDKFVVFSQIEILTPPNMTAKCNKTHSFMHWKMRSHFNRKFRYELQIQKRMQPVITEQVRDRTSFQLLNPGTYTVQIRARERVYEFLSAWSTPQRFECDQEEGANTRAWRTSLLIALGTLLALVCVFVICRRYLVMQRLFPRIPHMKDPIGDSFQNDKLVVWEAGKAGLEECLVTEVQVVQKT
T2 sequence (chain, as listed by the source mutant, chain 1 of 2): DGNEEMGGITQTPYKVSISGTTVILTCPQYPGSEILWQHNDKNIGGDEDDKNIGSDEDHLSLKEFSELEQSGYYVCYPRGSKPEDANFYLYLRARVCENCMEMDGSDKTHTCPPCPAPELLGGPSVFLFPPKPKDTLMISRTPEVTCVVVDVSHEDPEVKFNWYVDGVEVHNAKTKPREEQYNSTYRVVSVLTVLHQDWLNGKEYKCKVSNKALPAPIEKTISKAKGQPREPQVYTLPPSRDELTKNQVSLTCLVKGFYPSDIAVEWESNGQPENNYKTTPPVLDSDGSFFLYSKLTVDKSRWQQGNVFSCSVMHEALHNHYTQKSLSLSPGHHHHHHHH
T2 sequence (P04234 22-105, stated change not applied, chain 2 of 2): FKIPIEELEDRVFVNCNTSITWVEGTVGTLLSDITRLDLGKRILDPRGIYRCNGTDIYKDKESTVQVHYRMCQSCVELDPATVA

Row | Binder | Kd [2] [nM] | T cell activation with THP-1 target cells, CD4+ T cells (% CD69+ cells) EC50 (pM) [4] [pM] | T cell activation with THP-1 target cells, CD8+ T cells (% CD69+ cells) EC50 (pM) [4] [pM] | Jurkat-NFAT-Luc reporter, no target cells, activation at Cmax in relation to max. activation in assay with target cells (%) [5] [%] | Jurkat-NFAT-Luc reporter, with THP1 cells, EC50 (pM) [5] [pM] | Kd [6] [nM] | Kd [7] [nM] | Cytotoxic assay (THP cells) EC50 [pM] [8] [pM] | Activity EC50 [ng/ml], cytotoxic assay on THP-1 with human T cells [9] [ng/mL] | Kd [10] [nM] | koff [10] [s⁻¹] | kon [10] [M⁻¹ s⁻¹] | also measured
1 | B1 | 9 | 1.4 | 3.1 | 0.2 | 561 | – | – | – | – | – | – | – | Kd [1]: 0.2 nM; Cytotoxic assay (THP cells) EC50 [pM] [3]: 2.1 pM
2 | B2 | 15 | 1 | 3.3 | 0.4 | 320 | – | – | – | – | – | – | – | –
3 | B3 | – | – | – | – | – | 0.6 | 5 | 30.9 | – | – | – | – | –
4 | B4 | – | – | – | – | – | 0.1 | 5.4 | 26.7 | – | – | – | – | –
5 | B5 | – | – | – | – | – | – | – | – | 11 | 17 | 0.0044 | 270000 | –
6 | B6 | – | – | – | – | – | – | – | – | 18 | 7 | 0.00051 | 72000 | Kd [11]: 26.3 nM; koff [11]: 0.000571 s⁻¹; kon [11]: 21700 M⁻¹ s⁻¹

— patent US20210292423A1 (published 2021)
